Reference: EP4810052A2 (Gubra A/S, dated 2026)
Like-named read-outs stand apart in the source and are kept apart here. Non-standard residues stand in square brackets, D forms with d. No end group written: not given here. NMeI = CC[C@H](C)[C@H](NC)C(=O)O; Nle = CCCC[C@H](N)C(=O)O; lip = not defined here; Aib = CC(C)(N)C(=O)O

T1: human corticotropin-releasing hormone receptor 1 (human, UniProt P34998 24-415)
T1 sequence (looked up): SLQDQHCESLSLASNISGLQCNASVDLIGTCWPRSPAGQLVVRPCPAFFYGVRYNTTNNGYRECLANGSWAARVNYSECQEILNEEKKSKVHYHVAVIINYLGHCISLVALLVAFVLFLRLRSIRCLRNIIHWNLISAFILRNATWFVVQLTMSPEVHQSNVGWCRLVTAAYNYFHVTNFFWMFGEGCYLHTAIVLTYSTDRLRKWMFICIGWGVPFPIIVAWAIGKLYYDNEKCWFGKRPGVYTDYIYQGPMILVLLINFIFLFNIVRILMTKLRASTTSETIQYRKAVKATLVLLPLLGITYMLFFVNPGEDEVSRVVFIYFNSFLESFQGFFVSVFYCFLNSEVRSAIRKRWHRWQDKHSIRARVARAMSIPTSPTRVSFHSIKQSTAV


How the values were obtained:
Assay in all cases: cell-based or functional assay
[1] = biological target: T1, human corticotropin-releasing hormone …
[2] = biological target: T1, human corticotropin-releasing hormone …; remark: listed apart in the source
[3] = biological target: T1, human corticotropin-releasing hormone …; remark: listed apart in the source

| Binder | hCRHR1 EC50 (nM); HTRF cAMP assay, CHO-K1 cells stably expressing hCRHR1 [2] [nM] | hCRHR1 EC50 (nM); HTRF cAMP assay, CHO-K1 cells stably expressing hCRHR1 [3] [nM] | also measured |
| --- | --- | --- | --- |
| IVLSLDVPIGLLQILLEQARARAAREQAK(lip)TNIEILAEV-NH2 (not fully specified; reading uncertain) [SEQ ID NO: 13] | – | – | hCRHR1 EC50 (nM); HTRF cAMP assay, CHO-K1 cells stably expressing hCRHR1 [1]: > 5000 nM |
| [NMeI]VLSLDVPIGLLQILLEQARARAAREQAK(lip)ENAEILAEV-NH2 (reading uncertain) [SEQ ID NO: 18] | – | – | hCRHR1 EC50 (nM); HTRF cAMP assay, CHO-K1 cells stably expressing hCRHR1 [1]: > 5000 nM |
| K(lip)IVLSLDVPIGLLQILLEQARARAAREQATTNAEILAEV-NH2 (not fully specified; reading uncertain) [SEQ ID NO: 11 (prior art peptide)] | – | 670 | – |
| [NMeI]VLSLDVPIGLLQILLEQARARAAREQAKTNAEILAEV-NH2 (not fully specified (residue 29); also: lipid and spacer on Lys29 not given here) [SEQ ID NO: 5] | – | > 5000 | – |
| IVLSLDVPIGLLQILLEQARARAAREQAKTNAEI[Nle]AEI-NH2 (not fully specified (residue 29); also: lipid and spacer on Lys29 not given here) [SEQ ID NO: 69] | > 5000 | – | – |
| Ac-IVLSLDVPIGLLQILLEQARARAAREQAK(lip)TNAEILAEV-NH2 (not fully specified; reading uncertain) [SEQ ID NO: 8] | – | 560 | – |
| IVLSLDVPIGLLQILLEQARARAAREQAK(lip)TNARILARV-NH2 (not fully specified; reading uncertain) [SEQ ID NO: 2 (lipidated version of native UCN2)] | – | > 5000 | – |
| IVLSLDVPIGLLQILLEQARARAAREQAK(lip)TNLEILAEV-NH2 (not fully specified; reading uncertain) [SEQ ID NO: 12] | – | – | hCRHR1 EC50 (nM); HTRF cAMP assay, CHO-K1 cells stably expressing hCRHR1 [1]: > 5000 nM |
| IVLSLDVPIGLLQILLEQARARAAREQATK(lip)NAEILAEV-NH2 (not fully specified; reading uncertain) [SEQ ID NO: 4] | – | > 5000 | – |
| IVLSLDVPIGLLQILLSQARARAAREQAK(lip)TNAEI[Nle]AEV-NH2 (not fully specified; reading uncertain) [SEQ ID NO: 83] | > 5000 | – | – |
| IVLSLDVPIGLLQILLEQARARAAREQAK[Aib]NAEILAEV-NH2 (not fully specified (residue 29); also: lipid and spacer on Lys29 not given here) [SEQ ID NO: 19] | – | – | hCRHR1 EC50 (nM); HTRF cAMP assay, CHO-K1 cells stably expressing hCRHR1 [1]: > 5000 nM |
| IVLSLDVPIGLLQILLEQARARAAREQAKTNAEI[Nle]AEV-NH2 (not fully specified (residue 29); also: lipid and spacer on Lys29 not given here) [SEQ ID NO: 45] | 56 | – | – |
| IVLSLDVPIGLLQILLEQARARAAREQAK(lip)TN[Aib]EILAEV-NH2 (reading uncertain) [SEQ ID NO: 15] | – | – | hCRHR1 EC50 (nM); HTRF cAMP assay, CHO-K1 cells stably expressing hCRHR1 [1]: > 5000 nM |
| [NMeI]VTSLDVPIGLLQILLEQEKQEKEKQQAK(lip)TNAEILAQV-NH2 (reading uncertain) [SEQ ID NO: 10 (prior art peptide)] | – | 68 | – |
| IVLSLDVPIGLLQILLEQARARAAREQAK(lip)TNVEILAEV-NH2 (not fully specified; reading uncertain) [SEQ ID NO: 14] | – | – | hCRHR1 EC50 (nM); HTRF cAMP assay, CHO-K1 cells stably expressing hCRHR1 [1]: > 5000 nM |
| [NMeI]VLSLDVPIGLLQILLEQEKQEKEKQQAK(lip)TNAQILAQV-NH2 (not fully specified; reading uncertain) [SEQ ID NO: 9 (prior art peptide)] | – | 510 | – |
| IVLSLDVPIGLLQILLEQARARAAREQAK(lip)ENAEILAEV-NH2 (not fully specified; reading uncertain) [SEQ ID NO: 17] | – | – | hCRHR1 EC50 (nM); HTRF cAMP assay, CHO-K1 cells stably expressing hCRHR1 [1]: > 5000 nM |
| [NMeI]VLSLDVPIGLLQILLEQARARAAREQAK[Aib]NAEILAEV-NH2 (not fully specified (residue 29); also: lipid and spacer on Lys29 not given here) [SEQ ID NO: 20] | – | – | hCRHR1 EC50 (nM); HTRF cAMP assay, CHO-K1 cells stably expressing hCRHR1 [1]: > 5000 nM |
| PVLSLDVPIGLLQILLEQARARAAREQAK(lip)TNAEILAEV-NH2 (not fully specified; reading uncertain) [SEQ ID NO: 7] | – | > 5000 | – |

Continued, in another order:

| hCRHR1 EC50 (nM); HTRF cAMP assay, CHO-K1 cells stably expressing hCRHR1 [2] [nM] | hCRHR1 EC50 (nM); HTRF cAMP assay, CHO-K1 cells stably expressing hCRHR1 [3] [nM] | Binder | also measured |
| --- | --- | --- | --- |
| > 5000 | – | IVLSLDVPIGLLQILLEQARARAAREQAK[Aib]NAEI[Nle]AEI-NH2 (not fully specified (residue 29); also: lipid and spacer on Lys29 not given here) [SEQ ID NO: 236] | – |
| – | 110 | lip-IVLSLDVPIGLLQILLEQARARAAREQATTNAEILAEV-NH2 (not fully specified; reading uncertain) [SEQ ID NO: 260] | – |
| > 5000 | – | IVLSLDVPIGLLQILLSQARARAAREQAKTN[Aib]EI[Nle]AEV-NH2 (not fully specified (residue 29); also: lipid and spacer on Lys29 not given here) [SEQ ID NO: 234] | – |
| > 5000 | – | IVLSLDVPIGLLQILLSQARARAAREQAKENAEI[Nle]AEV-NH2 (not fully specified (residue 29); also: lipid and spacer on Lys29 not given here) [SEQ ID NO: 239] | – |
| > 5000 | – | IVLSLDVPIGLLQILLSQARARAAREQAK[Aib]NAEI[Nle]AEV-NH2 (not fully specified (residue 29); also: lipid and spacer on Lys29 not given here) [SEQ ID NO: 237] | – |
| > 5000 | – | [NMeI]VLSLDVPIGLLQILLSQARARAAREQAK(lip)ENAEI[Nle]AEV-NH2 (reading uncertain) [SEQ ID NO: 101] | – |
| > 5000 | – | [NMeI]VLSLDVPIGLLQILLSQARARAAREQAK(lip)[Aib]NAEI[Nle]AEV-NH2 (reading uncertain) [SEQ ID NO: 132] | – |
| > 5000 | – | IVLSLDVPIGLLQILLSQARARAAREQAK(lip)TNAEI[Nle]AEI-NH2 (not fully specified; reading uncertain) [SEQ ID NO: 89] | – |
| – | > 5000 | IVLSLDVPIGLK(lip)QILLEQARARAAREQATTNAEILAEV-NH2 (not fully specified; reading uncertain) [SEQ ID NO: 261] | – |
